Laboratory results from paper PMC3210482 (Journal of molecular biology, 2011).
Read-outs that look alike come from different tables or passages of the source.

B1: EnvZHDC (cytoplasmic HAMP, DHp and CA domains of E. coli histidine kinase EnvZ, amino acids 179-450) (domain or fragment, UniProt P0AEJ4 179-450, looked up)
chain: IRIQNRPLVDLEHAALQVGKGIIPPPLREYGASEVRSVTRAFNHMAAGVKQLADDRTLLMAGVSHDLRTPLTRIRLATEMMSEQDGYLAESINKDIEECNAIIEQFIDYLRTGQEMPMEMADLNAVLGEVIAAESGYEREIETALYPGSIEVKMHPLSIKRAVANMVVNAARYGNGWIKVSSGTEPNRAWFQVEDDGPGIAPEQRKHLFQPFVRGDSARTISGTGLGLAIVQRIVDNHNGMLELGTSERGGLSIRAWLPVPVTRAQGTTKEG
B2: RstBDC (DHp and CA domains of E. coli RstB, amino acids 201-433) (domain or fragment, UniProt P18392 201-433, looked up)
chain: MADNINALIASKKQLIDGIAHELRTPLVRLRYRLEMSDNLSAAESQALNRDISQLEALIEELLTYARLDRPQNELHLSEPDLPLWLSTHLADIQAVTPDKTVRIKTLVQGHYAALDMRLMERVLDNLLNNALRYCHSTVETSLLLSGNRATLIVEDDGPGIAPENREHIFEPFVRLDPSRDRSTGGCGLGLAIVHSIALAMGGTVNCDTSELGGARFSFSWPLWHNIPQFTSA
B3: EnvZDC (DHp and CA domains of E. coli EnvZ, amino acids 223-450) (domain or fragment, UniProt P0AEJ4 223-450, looked up)
chain: MAAGVKQLADDRTLLMAGVSHDLRTPLTRIRLATEMMSEQDGYLAESINKDIEECNAIIEQFIDYLRTGQEMPMEMADLNAVLGEVIAAESGYEREIETALYPGSIEVKMHPLSIKRAVANMVVNAARYGNGWIKVSSGTEPNRAWFQVEDDGPGIAPEQRKHLFQPFVRGDSARTISGTGLGLAIVQRIVDNHNGMLELGTSERGGLSIRAWLPVPVTRAQGTTKEG
B4: RstBHDC (cytoplasmic HAMP, DHp and CA domains of E. coli histidine kinase RstB, amino acids 157-433) (domain or fragment, UniProt P18392 157-433, looked up)
chain: MRPHWQDMLKLEAAAQRFGDGHLNERIHFDEGSSFERLGVAFNQMADNINALIASKKQLIDGIAHELRTPLVRLRYRLEMSDNLSAAESQALNRDISQLEALIEELLTYARLDRPQNELHLSEPDLPLWLSTHLADIQAVTPDKTVRIKTLVQGHYAALDMRLMERVLDNLLNNALRYCHSTVETSLLLSGNRATLIVEDDGPGIAPENREHIFEPFVRLDPSRDRSTGGCGLGLAIVHSIALAMGGTVNCDTSELGGARFSFSWPLWHNIPQFTSA

Columns and labels:
FRET or BRET [1] = target: the molecule itself; assay: FRET or BRET
FRET or BRET [2] = target: the molecule itself; assay: FRET or BRET; remark: listed apart in the source

| Protein | Kd (FRET or BRET [1]) [nM] | Kd (FRET or BRET [2]) [nM] |
| --- | --- | --- |
| B1 | 400 |  |
| B2 |  | 270000 |
| B3 | 100 |  |
| B4 | 300 |  |
